Target: T1, MYB46-GFP fusion
T1 chain: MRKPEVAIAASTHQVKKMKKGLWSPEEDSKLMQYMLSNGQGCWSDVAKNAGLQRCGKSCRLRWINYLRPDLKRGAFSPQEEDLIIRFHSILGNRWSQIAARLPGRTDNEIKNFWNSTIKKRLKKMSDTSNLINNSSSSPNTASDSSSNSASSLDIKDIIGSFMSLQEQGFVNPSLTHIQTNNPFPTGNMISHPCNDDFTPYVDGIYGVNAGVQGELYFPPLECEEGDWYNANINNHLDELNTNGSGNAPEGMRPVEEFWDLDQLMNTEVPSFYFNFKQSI

B1: CAMPK6-HA (hemagglutinin conjugated CAMPK6) (protein)
chain: MDGGSGQPAADTEMTEAPGGFPAAAPSPQMPGIENIPATLSHGGRFIQYNIFGNIFEVTAKYKPPIMPIGKGAYGIVCSAMNSETNESVAIKKIANAFDNKIDAKRTLREIKLLRHMDHENIVAIRDIIPPPLRNAFNDVYIAYELMDTDLHQIIRSNQALSEEHCQYFLYQILRGLKYIHSANVLHRDLKPSNLLLNANCDLKICDFGLARVTSESGFMTAYVVTRWYRAPELLLNSSDYTAAIDVWSVGCIFMELMDRKPLFPGRDHVHQLRLLMELIGTPSEEELEFLNENAKRYIRQLPPYPRQSITDKFPTVHPLAIDLIEKMLTFDPRRRITVLDALAHPYLNSLHDISDEPECTIPFNFDFENHALSEEQMKELIYREALAFNPEYQQ
  immunocomplex kinase assay (phosphorylation of MYB46): CAMPK6 directly phosphorylates MYB46
